Experimental data as given in the DeepSol protein solubility set.

Test: soluble on expression in E. coli; label from the status in PepcDB or PDB records

Row | Sequence | soluble on expression in E. coli
1 | SLVNPNQFKPLIVEQAKKQTGLDLVIEGDIGWQFFPSIGFELGKTELKNPQGFASPNLFKVESVGIDVSVMPLLDKQLKIGNIRLDGAEFHLETLKDGRSNLDALTQAQSKPASAPATTDSAPASQPSSSEPAAAWSIELGGVSVSNAVLEITDKKAGSHTKLYDVQLSVAEFVPDNWTKATFAAKGDKDQQKFAAQGEAEVRLSADFKQYALRNINLDASFSDPSNQIDSAKLKLDTFEFDKANALTFSVAGKAADMKLNAQGSASLMVNQAISKVGLDALKLQAELEGAALPQSPMKLSLDSQIAFDLTQNHLSVLLNKLTANALSFDGKADVTLADIPKVRFNLHSPEIDLDAFLGTKAQESQPAPAKEAAASSSSAPATNAPAEVEPDLSALKALDVAGEISIDKFKASNAHLQNVKANFAVNRGVVDLKSFTANLYQGSVQASAQVDARKTPATYSVKKQIKGVQVKPLLKDVLNNEMLEGTGNIDVNVQGQSLTPSGIQKNLVGTVAINFADGAVKGINVAHLIRTHYAKIKGQNVEEADAVKKTDFSAMTTTLKLNKGEVTTNDLNMQSPLLRIHGEGKANYLQQNVDFLVRTSIVGTLEGQGGKSLDELRDVTIPINISGAWSDPKFRLVFDDVLKQKAKKEVDRGVEKLTDKIKDEDTKKAVDGLLKGLFN | soluble
2 | MRSRHDTYNNDCDRTLVIMAQRTLAYIVSRRQSASGFTTTARARRWHV | not soluble
3 | MHHHHHHMELSLASITVPLESIKPSNILPVTVYDQHGFRILFHFARDPLPGRSDVLVVVVSMLSTAPQPIRNIVFQSAVPKVMKVKLQPPSGTELPAFNPIVHPSAITQVLLLANPQKEKVRLRYKLTFTMGDQTYNEMGDVDQFPPPETWGSL | soluble
4 | MGSDKIHHHHHHMKTKETPEQKPEDMPIPIVDITSVEQQTVSLNLPSYGVVTPKYKTQLVTEVQGRMLTISPQFVAGGIVKKGDQLAQIEPSDYEADLMQAEATLAQATAALNEEIARGEVAKIEFKGYDKGLPPELGLRIPQLKKEQANVKYAQAALARAQRNLERTIIRAPFDGIIKARNVDLGQYVTLGTNLGELYDTSIAEIRLPISNDDLAYLESVDNPDTQVTLSASLAGKENTWIGNIIRSEGVIDADNRMVYLVAEIKDPYLREHKTQGSLPLKYGSFVNAVIKGRTVDGIVKLPRHVVRNEHVALINDNNIVEMRHVNVVRSDLQNVFIKDSLKTGERVAITHFNNMANGQLVKVIGEETKPAQTPAPESSLAATGVK | not soluble
5 | MGSDKIHHHHHHMVANPALPEGISDLPAGTLASVVTYLEMKTPPPIKGLETPPGLRLLRHDAPDVEWYCRLYRLVGEDYLWFSRLMWDYATLAAHLASDRVEVWSLQKQGVDLGLLELEWMQDGDCELSFFGLSKELIGAGVGRWLMEHATARAFSREISRFFVHTCTLDSPQALGFYMRSGFVPYGRAVEIAEDPRLTGLIPKTAAAHVPLIQR | not soluble
6 | MHRGITVQTSDLDDGVTGVVGKVYIEASPKHVWAAITDYNNHKSFVPKLIDSGLISDNGREQVMFERGKTGIFLFRKTVYIKLSLQGEYPKRLDFHQIEGDFKVYEGDWLIERASDGKGSILTFRAKIKPDFFAPAMFVRKVQQNDLPMVLAAMKKRAESAEGSLEHHHHHH | not soluble
7 | MGSDKIHHHHHHMSRNTEATEEVGIWTGGRLNYKEGFFTQLPTDELAKGISEEVVRAISAKRNEPEWMLEFRLNAYRAWLDMDEPHWLKAHYDKLNYQDYSYYSAPSCGNCDDSCVSQPGAVQQTGANTFLSKEVEDAFEQLGVPVREGKEVAVDAIFDSVSVATTYREKLAEQGIIFCSFGEAIHDHPDLVRKYLGTVVPGNDNFFAALNAAVASDGTFIYVPKGVRCPMELSTYFRINAEKTGQFERTILVADEGSYVSYIEGCSAPVRDSYQLHAAVVEVIIHKDAEVKYSTVQNWFPGDNNTGGILNFVTKRALCEGENSKMSWTQSETGSAITWKYPSCILRGDNSIGEFYSVALTSGHQQADTGTKMIHIGKNTRSTIISKGISAGHSQNSYRGLVKIMPTATNARNFTQCDSMLIGADCGAHTFPYVECRNNSAQLEHEATTSRIGEDQLFYCLQRGISEEDAISMIVNGFCKDVFSELPLEFAVEAQKLLAISLEHSVG | not soluble
8 | KTHEGHCYIIKAHTPIEEFNEQLNADFSDETYDTIGGIVLNKFGYLPQRGEVIIIDDFEFKVLNADSRRIKLLECLDKR | soluble
9 | MTENELLTRCGGKCELCGSDVELAIYDLPASDGHENEIMICENCSSQIAAPDTMDMNHWRCLNDSMWSQVPAVQVMSYRMLKRLSGESWAQDLLDMLYLEDDLRAWGDAEAAAASDDTPPTLDSNGAVLNAGDTVVIIKDLNVKGTSFVAKRGTAVRNIALTNNPEHIEGRVNGTRIVILTCFVKKSLEHHHHHH | soluble
10 | FHHYKILDTNILIDGRIYDLAKTGFLEGTLLVPNFVLYELQYIADSSDSVKRVRGRRGLDILNKLQNEHIMPIEMYEGDFEDIPEVDSKLIALAKQNGGVIVTNDYNLNKVIQFQNVQVLNINSLANALKPRVI | not soluble
11 | MAFNTRANAEKYLATCYNFVPAAANLDHNSGLICGGEMWYLKPESHYYKNITSFNIARGMQNSNDPLLNYWDGGQGGYNIFRGIHECNIFIDNIDRVPDMRMEEKNKWKAEVMTLKAYYIYYLMLHYGPIPLLKENISVEADLDMMQLERETINDIVTYTTDLLDEAMNIPSGLTFNVTSPRTELGRITLPIAKAIKAKLLILAASPLFNGNTMYAEFVNSEGIPFFDQEYKKEKWEAAAAACLDAINTAHEAGASLYKFDEKLNYTPSSTLQQELTLRNTITGRFNSEIIWALGSNATDGIQNLCQAHLTSYSLGNRMIRSCSQLVPSLEIVEQFYTANGVPMDEDKDYEYENRYKLTTTPEDDPIHFTPNYTTIKMHLNREPRFYAYIGFDGGKWFSIECCNDNETSSYPIKSKKGDIAGVSDELYSPTGYFTKKLVSYQNVNTSATNINYVYSFPIIRLSDLYLLYAEALNELNETPTTDVYYYVQQVRNKAGLDEGGSLVNTWRNHSNRPDKPTTQRGMREIIQKERMIELAFEGHRYHDVRRWKLGSTYLNTQIKGWSVLEQDPEYFYNVRVLFTRKFMPRDYLWPIKTNSINRNPKLVQNPQW | not soluble
12 | SLEIRRSDAPRLVDLVRRAQASVNRLATEREALTTRIDSVHGRSVDTALAAMQRRSAKLAGVAAMNPVHGPGLVVTLQDAQRDANGRFPRDASPDDLVVHQQDIEAVLNALWNAGAEAIQMQDQRIIAMSIARCVGNTLLLNGRTYSPPYTIAAIGDAAAMQAALAAAPLVTLYKQYVVRFGLGYCEEVHPDLQIVGYADPVRMHFAQPAGPLDY | soluble
13 | MSLIGFLSDRQGFEKQYHDIDLSSFGIREGISEIIASTGFEHPNAAPIGIVMKGERPFVRLFKGSHTWENVLKEKCLASNVVYDPILFVRSTFSDLVPSEFEYVDAGEFKFPVLKEAIAWVVFECINLRNTDQSLVADLVPLNAGFNERNIKELPVPNRGFNAVLEATVHATRYQLTGEEKYLELIRHYESLASKCGGDAEKKAMKLIYEALGLEGHHHHHH | soluble
14 | DEIIDGEDELEQDDPFEGEDIDPESIQEPEASYDSSSSPSGASNAEDDWQDEHRVRKFHINGVTVKAIAERVQYYDADGKLVTESFKDYTRKTMAKQFTSMDDFVKRWQDADKKQAIIDELAEEGIIWEALELEVGKDLDPFDMICHVVYDQPALTRKERADNVKKRNYFTKYGETAQQVLNNLLDKYADEGVQEIENIHVLKVKPFDEMGRPAEIVKKCFGGKEQYLEAISELEAEIY | not soluble
15 | MQYRRQPCSGVVKFNDAITLIDAGLHDLADRWSPGSFQQFLLTHYHMDHVQGLFPLRWGVGDPIPVYGPPDEQGCDDLFKHPGLLDFSHTVEPFVVFDLQGLQVTPLPLNHSKLTFGYLLETAHSRVAWLSDTAGLPEKTLKFLRNNQPQVMVMDCSHPPRADAPRNHCDLNTVLALNQVIRSPRVILTHISHQFDAWLMENALPSGFEVGFDGMEIGVALEHHHHHH | not soluble
16 | MENQLTKSVEERTFQYQDSLPSLPVPALEESLKKYLESVKPFANEDEYKKTEEIVQKFQEGAGKRLHQKLLERARGKRNWLEEWWLNVAYLDVRIPSQLNVNFVGPCPHFEHYWPAREGTQLERGSMMLWHNLNYWQLLRREKLPVHKSGNTPLDMNQFRMLFSTCKVPGITRDSIMNYFKTESEGHCPTHIAVLCRGRAFVFDVLHEGCLITPPELLRQLTYIHKKCSNEPVGPSIAALTSEERTRWAKAREYLISLDPENLTLLEKIQTSLFVYSIEDSSPHATPEEYSQVFEMLLGGDPSVRWGDKSYNLISFANGIFGCCCDHAPYDAMVMVNIAHYVDERVLETEGRWKGSEKVRDIPLPEELVFTVDEKILNDVSQAKAQHLKAASDLQIAASTFTSFGKKLTKEEALHPDTFIQLALQLAYYRLHGRPGCCYETAMTRYFYHGRTETVRSCTVEAVRWCQSMQDPSASLLERQQKMLEAFAKHNKMMKDCSHGKGFDRHLLGLLLIAKEEGLPVPELFEDPLFSRSGGGGNFVLSTSLVGYLRVQGVVVPMVHNGYGFFYHIRDDRFVVACSSWRSCPETDAEKLVQMIFHAFHDMIQLMNTAHL | soluble
17 | MSENSIRLTQYSHGAGCGCKISPKVLETILHSEQAKFVDPNLLVGNETRDDAAVYDLGNGTSVISTTDFFMPIVDNPFDFGRIAATNAISDIFAMGGKPIMAIAILGWPINKLSPEIAREVTEGGRYACRQAGIALAGGHSIDAPEPIFGLAVTGIVPTERVKKNSTAQAGCKLFLTKPLGIGVLTTAEKKSLLKPEHQGLATEVMCRMNIAGASFANIEGVKAMTDVTGFGLLGHLSEMCQGAGVQARVDYEAIPKLPGVEEYIKLGAVPGGTERNFASYGHLMGEMPREVRDLLCDPQTSGGLLLAVMPEAENEVKATAAEFGIELTAIGELVPARGGRAMVEIR | soluble
18 | AQLQNLVLKDREATPNDHTFVPRDIRDNVGEVVESTGVPIGESRFTISLRKTSNGRYKSTLKLVVPVVQSQTVNGIVTPVVVRTSYVTVDFDYDARSTTKERNNFVGMIADALKADKMLVHDTIVNLQGVY | soluble
19 | MSLSFTGLEGTRVLVADDNFTSRAILKEVLESLRFDVTLAESGEEAVDLVQKTAEPFKVVLLDWRMPGLDGLACARHIRQLDLPVRPTILIITAYGREEVLGEIPSEIIDGVLLKPVARSLLLNTILDALPEYSSRPEQESRIIQIDTAQLRQELADTSVLVVEDNKINRQIAKELLEGVGVRVTLAGDGLEALALVENYDFDLIFMDIQMPRMDGLEACRRIRQLQHKKQPPVVAMTAHALAGDRETSLRAGMNDHITKPIDPDELYAALANWIKRNHAEGHHHHHH | soluble
20 | MHHHHHHGSKFKGSTFGRLVRIEFDILRLGELKIDDLSEFDTSEIKLEIKATSSGIKLVGVWEGDIEKVGEAIKKALEESIKLRERILRKMKSKVERIRKALLEMGFREEQFGYGEAVKFVKKVGDFEIAIIVSSREDIVRVEVYGEGNRKIIAPELEAFFESVDIEEIEVYDIEEEGREEKVVINLELPKSDEKPEKRITEAVKILENILMA | soluble
21 | MNGKARISIAIDGPAGAGKSTIAKIISKTLNILYLDTGAMYRAVALKAIRESVDTLNREQMSKLVENIDIKIAHSEDIQRIFLDGEDVTDFIRTPEVSIGASNVATVPAVRLKMVELQREIAKKNSVVMDGRDIGTYVLPDATLKFFLTASVEARAIRRYNELLSKGITQITLEDVKKDIEYRDKNDSNREFAPLSKAPDAIEIDTTDLTIEQVVNKIMEYAKDYVC | soluble
